Measurements taken from US20260022170A1 (published 2026).

Key:
[1] = biological target: recombinant human Siglec-9 protein (UniProt Q9Y336 18-348); assay: ELISA
[2] = biological target: recombinant Siglec-9 (SinoBiological, 30109-H03H) (UniProt Q9Y336 18-348); assay: ELISA
[3] = biological target: human Siglec-9 protein (recombinant; construct not stated) (UniProt Q9Y336 18-344); assay: BLI
Chain of human Siglec-9 protein (recombinant; construct not stated) (Q9Y336 18-344): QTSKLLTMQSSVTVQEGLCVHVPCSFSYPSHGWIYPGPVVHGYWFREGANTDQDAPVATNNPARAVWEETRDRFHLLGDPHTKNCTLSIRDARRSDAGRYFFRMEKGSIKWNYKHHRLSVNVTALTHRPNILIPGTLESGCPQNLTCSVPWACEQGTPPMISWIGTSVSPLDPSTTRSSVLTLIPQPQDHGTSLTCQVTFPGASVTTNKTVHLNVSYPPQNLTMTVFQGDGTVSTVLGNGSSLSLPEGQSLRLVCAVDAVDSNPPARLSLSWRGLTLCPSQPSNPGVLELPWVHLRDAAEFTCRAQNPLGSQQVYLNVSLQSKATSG

Chain of recombinant human Siglec-9 protein (Q9Y336 18-348): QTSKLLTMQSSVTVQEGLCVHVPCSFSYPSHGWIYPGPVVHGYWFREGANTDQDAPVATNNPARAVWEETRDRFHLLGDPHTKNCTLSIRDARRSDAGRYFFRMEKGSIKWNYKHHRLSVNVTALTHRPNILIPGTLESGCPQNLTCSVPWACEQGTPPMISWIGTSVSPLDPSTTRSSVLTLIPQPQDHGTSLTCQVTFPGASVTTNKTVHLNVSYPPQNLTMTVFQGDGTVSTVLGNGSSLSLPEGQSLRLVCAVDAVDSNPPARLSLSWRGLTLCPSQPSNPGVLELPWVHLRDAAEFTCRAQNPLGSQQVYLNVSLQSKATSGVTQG
Chain of recombinant Siglec-9 (SinoBiological, 30109-H03H) (Q9Y336 18-348): as above

Kd [3] | Binder | further results
– | Benchmark-3 (antibody, V domains shown) VH: QSLEESGGRLVKPDETLTITCTVSGIDLSSYDMTWVRQAPGKGLEWIGIIYTGGLTYYASWAKGRFTISKTSTTVDLKITSPTTEDTATYFCAREVGDNNNFWGPGTLVTVSS VL: DVVMTQTPASVSEPVGGTVTIKCQASESVDSGLAWYHQKPGQPPKLLIYDDTDLASGVPSRFKGSRSGTAHTLTISDLECADAATYYCQYTDYGRTYVGTFGGGTEVVIKG | EC50 [1]: 0.157 nM
– | humanised CB6B3 (huCB6B3) (antibody, V domains shown) VH: EVQLVQSGAEVKKPGATVKISCKVSGYTFTDYFIHWVQQAPGKGLEWMGLIDPENDNTMYDPRFQVRVTITADTSTDTAYMELSSLRSEDTAVYYCASTVVARSFDYWGQGTTVTVSS VL: AIQMTQSPSSLSASVGDRVTITCKASQSVSNDVAWYQQKPGKAPKLLIYYTSNRYTGVPSRFSGSGSGTDFTLTISSLQPEDFATYYCQQDFRSPFTFGGGTKVEIK | EC50 [2]: 0.13 nM
80 nM | anti-Siglec-9 monoclonal antibody clone CB6B3 (parental mouse antibody) (antibody, V domains shown) VH: EVQLQQSGAEVVRPGALVKLSCKAAGFNIKDYFIHWVKQRPEQGLEWIGLIDPENDNTMYDPRFQVKASLTADTSSNTAYLQLSRLTSEDAAVYYCASTVVARSFDYWGQGTTLTVSS VL: SIVMTQTPKFLLVSAGDRVTITCKASQSVSNDVAWYQQKSGQSPKLLIYYTSNRYTGVPDRFTGSGYGTDFTFTISTVQAEDLAVYFCQQDFRSPFTFGAGTKLELK | –
38 nM | anti-Siglec-9 monoclonal antibody clone ED2D5 (antibody, V domains shown) VH: EVQLVESGGGLVKPGGSLKLSCAASGFTFSDYYMYWVRQTPEKRLEWVATISDGGSDTYYPDNMKGRFTISRDNAKNNLYLQMSSLKSEDTAMYYCTRDPDYDDGRFAYWGQGTLVTVSA VL: DIVMTQSHKFMSTSVGDRVSITCKASQDVGTVVAWYQQKSGQSPKLLIYWSSTRHTGVPDRFTGSGSGTDFTLTISNVQSEDLADYFCQQYIDYPLSFGAGTKLELK | –
